The record followed here is patent US20050215629.

This data set deals with synthetic phosphotyrosine peptide Arg-Arg-Leu-Ile-Glu-Asp-Ala-Glu-Tyr-Ala-Ala-Arg-Gly, wherein the tyrosine is phosphorylated.

For the substance “GST fusion protein of mitogen-activated protein kinase phosphatase 1 (MKP1)”, the “PTPase activity (malachite green, absorbance at 660 nm)” value (“PTPase activity” for short) was 660 nm absorbance approximately 0.6 above background (0.03).

Consider GST fusion protein of SHP-1, for which the “PTPase activity” value is reported as 660 nm absorbance approximately 0.6 above background (0.03).

As for “GST fusion protein of SHP-1 catalytic domain (SHP-1cata)”, the “in vitro PTPase assay” value is “the two proteins in their dephosphorylation of the phosphotyrosine peptide substrate in vitro”.

For GST fusion protein of SHP-2, the “PTPase activity” value is recorded as 660 nm absorbance approximately 0.6 above background (0.03).

For “GST fusion protein of protein tyrosine phosphatase 1B (PTP1B)”, the “PTPase activity” value is listed as 660 nm absorbance approximately 0.6 above background (0.03).
